Assay results taken from patent US20190211099A1 (KING S COLLEGE LONDON, published 2019).

Target: T1, MUC1 carrying sialylated Core-1 glycans expressed by the breast cancer cell line T47D (UniProt P15941 24-1255, limits assumed, O-linked sialylated Core-1 glycans)
T1 construct: whole, on cells; also called MUC1-ST on T47D cells; T47D cells (MUC1-ST+ve)
Assay: staining of FFPE T47D cells with human Siglec-9 IgG fusion, DAB

T1 sequence (P15941 24-1255 limits assumed, stated change not applied): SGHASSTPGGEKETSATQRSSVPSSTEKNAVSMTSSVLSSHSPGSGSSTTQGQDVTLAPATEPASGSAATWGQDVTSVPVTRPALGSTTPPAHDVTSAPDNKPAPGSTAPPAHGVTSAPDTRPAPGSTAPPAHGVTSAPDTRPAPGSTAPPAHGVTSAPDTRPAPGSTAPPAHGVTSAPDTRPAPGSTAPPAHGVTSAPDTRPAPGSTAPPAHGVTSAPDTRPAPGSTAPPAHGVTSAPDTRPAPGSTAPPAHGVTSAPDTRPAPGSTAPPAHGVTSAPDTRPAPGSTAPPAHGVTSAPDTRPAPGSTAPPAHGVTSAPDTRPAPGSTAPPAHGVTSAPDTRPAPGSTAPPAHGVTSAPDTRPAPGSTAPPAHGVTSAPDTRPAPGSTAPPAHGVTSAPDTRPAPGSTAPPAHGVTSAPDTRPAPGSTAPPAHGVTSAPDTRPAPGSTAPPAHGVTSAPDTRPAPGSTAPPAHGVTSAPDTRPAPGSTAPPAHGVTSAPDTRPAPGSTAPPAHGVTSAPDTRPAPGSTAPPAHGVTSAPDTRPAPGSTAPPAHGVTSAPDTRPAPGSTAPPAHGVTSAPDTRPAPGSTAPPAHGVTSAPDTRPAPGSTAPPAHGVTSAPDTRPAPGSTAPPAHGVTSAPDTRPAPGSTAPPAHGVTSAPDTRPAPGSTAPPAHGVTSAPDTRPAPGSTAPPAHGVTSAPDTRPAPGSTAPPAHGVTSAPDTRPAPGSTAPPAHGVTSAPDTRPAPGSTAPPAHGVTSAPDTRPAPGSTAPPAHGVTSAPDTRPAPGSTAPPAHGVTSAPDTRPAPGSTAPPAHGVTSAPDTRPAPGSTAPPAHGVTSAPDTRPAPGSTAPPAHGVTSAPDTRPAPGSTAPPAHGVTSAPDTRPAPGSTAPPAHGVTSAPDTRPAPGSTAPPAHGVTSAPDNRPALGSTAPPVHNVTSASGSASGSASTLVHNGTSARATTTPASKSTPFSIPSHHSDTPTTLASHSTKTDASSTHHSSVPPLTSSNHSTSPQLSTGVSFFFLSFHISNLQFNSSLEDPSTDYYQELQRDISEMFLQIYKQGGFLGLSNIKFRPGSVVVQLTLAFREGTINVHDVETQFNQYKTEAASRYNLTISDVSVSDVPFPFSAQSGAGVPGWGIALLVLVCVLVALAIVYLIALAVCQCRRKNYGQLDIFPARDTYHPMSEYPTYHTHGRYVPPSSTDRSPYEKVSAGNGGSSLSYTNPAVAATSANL

B1: Recombinant human Siglec-9 fusion protein (Fc fusion)
chain: TSKLLTMQSSVTVQEGLCVHVPCSFSYPSHGWIYPGPVVHGYWFREGANTDQDAPVATNNPARAVWEETRDRFHLLGDPHTKNCTLSIRDARRSDAGRYFFRMEKGSIKWNYKHHRLSVNVTALTHRPNILIPGTLESGCPQNLTCSVPWACEQGTPPMISWIGTSVSPLDPSTTRSSVLTLIPQPQDHGTSLTCQVTFPGASVTTNKTVHLNVSYPPQNLTMTVFQGDGTVSTVLGNGSSLSLPEGQSLRLVCAVDAVDSNPPARLSLSWRGLTLCPSQPSNPGVLELPWVHLRDAAEFTCRAQNPLGSQQVYLNVSLQSKATSGVTQG
notes: also called human Siglec-9 IgG fusion; recombinant Siglec 9; not shown: human IgG part of the fusion (captured with mouse anti human IgG)
B1: binds.
